Literature values, collected in publication PMC4485553.

Biological target: human IgG1, wild type (UniProt P01857)
Assay: not stated in this review
Conditions: pH 6

KD: 0.032 µM
Substance: FcRn (neonatal Fc receptor), mouse
